Source: patent publication US20150266960A1 (University of Texas, published 2015)
One block for each molecule: values may come before it.

B1: Wild type IgA Fc domain (other)
chain: VPCPVPSTPPTPSPSTPPTPSPSCCHPRLSLHRPALEDLLLGSEANLTCTLTGLRDASGVTFTWTPSSGKSAVQGPPERDLCGCYSVSSVLPGCAEPWNHGKTFTCTAAYPESKTPLTATLSKSGNTFRPEVHLLPPPSEELALNELVTLTCLARGFSPKDVLVRWLQGSQELPREKYLTWASRQEPSQGTTTFAVTSILRVAAEDWKKGDTFSCMVGHEALPLAFTQKTIDR
notes: Template for the alanine scan; also called wild-type glycosylated IgA; IgA CH2 CH3

Columns and labels:
FcαRI-GST [1] = biological target: T1, FcαRI-GST (UniProt P24071 22-227, limits assumed); assay: SPR, antibody amine coupled, dimeric FcαRI-GST flowed, 2:1 bivalent analyte fit
T1 construct: extracellular domain; Made in HEK293F cells from pMaz-IgH-FcαRI-GST (dimeric expression) and purified on glutathione Sepharose; also called soluble dimeric FcαRI-GST; CD89; not shown: GST tag
T1 sequence (P24071 22-227 limits assumed): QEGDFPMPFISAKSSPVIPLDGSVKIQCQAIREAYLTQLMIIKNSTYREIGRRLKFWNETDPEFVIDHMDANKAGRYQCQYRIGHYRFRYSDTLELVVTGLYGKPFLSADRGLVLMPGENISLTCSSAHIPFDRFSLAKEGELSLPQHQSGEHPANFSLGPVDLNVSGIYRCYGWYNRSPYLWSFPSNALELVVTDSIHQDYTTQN

FcγRI-GST = biological target: T2, FcγRI-GST (UniProt P12314 16-292, limits assumed); assay: ELISA: Fc domain coated at 4 µg/mL, FcγRI-GST in 1:4 serial dilution, anti-GST HRP, A450
T2 construct: not shown: GST tag
T2 sequence (P12314 16-292 limits assumed): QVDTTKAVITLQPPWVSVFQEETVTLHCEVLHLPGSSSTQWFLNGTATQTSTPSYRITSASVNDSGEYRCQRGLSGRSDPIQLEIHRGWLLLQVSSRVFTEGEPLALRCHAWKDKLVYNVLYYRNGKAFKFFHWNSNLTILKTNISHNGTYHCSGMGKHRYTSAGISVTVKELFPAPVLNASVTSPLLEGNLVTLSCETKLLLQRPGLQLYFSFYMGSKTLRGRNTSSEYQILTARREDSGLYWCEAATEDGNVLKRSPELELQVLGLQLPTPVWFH
Protocol: (§1) ELISA plates (Qiagen) were coated with 4 μg/mL of each of the mutant Fc domains in 1×PBS (pH 7.4) overnight at 4° C. The next day the plates were blocked for 2 hours at room temperature with 2% milk in 1×PBS containing 0.05% Tween (PBST) and washed three times in PBST at pH 7.4. To the first well, 66 μL of 20 μg/mL of either FcγRI-GST, FcγRI-GST, FcγRIIa-R131-GST, FcγRIIb-GST, or FcγRIIIa-F158-GST dissolved in PBS with 2% milk (PBSM) was added followed by 1:4 serial dilution. After 1 h of incubation at room temperature, the plates were washed and 50 μL PBSM was added containing 1:5000 goat anti-GST HRP (GE Healthcare) for 1 hour. To develop the plates, the wells were washed 3× with PBST, 50 μL TMB substrate was added per well (Thermo Scientific), 50 μL of 1 M H₂SO₄ was added to neutralize, and the absorbance at 450 nm was recorded.

FcαRI-GST [2] = biological target: T1, FcαRI-GST; assay: ELISA: Fc domain coated at 4 µg/mL, FcαRI-GST in 1:4 serial dilution, anti-GST HRP, A450
Protocol: as §1

Wild type IgA Fc domain = biological target: B1; assay: ELISA: Fc domain coated at 4 µg/mL, FcγRIIa-R131-GST in 1:4 serial dilution, anti-GST HRP, A450
Protocol: as §1

Molecule: B1
binding result (FcγRI-GST): no binding

B2: Mutant B (other)
Fc chain (hinge-CH2-CH3): DKTHTCPPCPAPELLGGPSVFLFPPKPKDTLMISRTPEVTCVVVDVSHEDPEVKFNWYVDGVEVHNAKTKPREEQYNSTYRVVSVLTVLHQDWLNGKEYKCKVSNKALPAPIEKTISKAKSGNTFRPEVHLLPPPSEELALNELVTLTCLARGFSPKDVLVRWLQGSQELPREKYLTWASRQEPSQGTTTFAVTSILRVAAEDWKKGDTFSCMVGHEALPLAFTQKTIDR
notes: Purified over Ni-NTA (His tag); also called Mutant B Fc domain; MutB
binding result (FcαRI-GST [2]): no binding

Second part, the molecule after the results:

Kd (FcαRI-GST [1]): 0.5 µM
Molecule: trastuzumab IgA (antibody)

binding result (Wild type IgA Fc domain): no binding
B3: FcγRIIa-R131-GST (receptor, UniProt P12318 34-217, looked up)
chain: QAAAPPKAVLKLEPPWINVLQEDSVTLTCQGARSPESDSIQWFHNGNLIPTHTQPSYRFKANNNDSGEYTCQTGQTSLSDPVHLTVLSEWLVLQTPHLEFQEGETIMLRCHSWKDKPLVKVTFFQNGKSQKFSRLDPTFSIPQANHSHSGDYHCTGNIGYTLFSSKPVTITVQVPSMGSSSPMG
notes: R131 is an allele name counted on the mature protein; not shown: GST tag
